Source: patent US20210130436A1 (published 2021)

Legend:
human CD28 = biological target: T1, human CD28 (human, UniProt P10747 19-220); experiment: flow cytometry on Jurkat cells (CD28)
T1 construct: Endogenous CD28 on Jurkat/IL2 reporter cells

human PD-L1 = biological target: T2, human PD-L1 (human, UniProt Q9NZQ7 19-290); experiment: flow cytometry on CHO cells stably expressing PD-L1
T2 construct: also called huPD-L1; CD274

[1] = biological target: T3, human CTLA-4 (CTLA4), full-length, expressed on the surface of CHO cells (human, UniProt P16410 36-223); experiment: flow cytometry, CHO cells stably expressing human CTLA-4, 33.3 nM Fc fusion, PE anti-human Fc
T3 construct: also called huCTLA4
T3 sequence (P16410 36-223): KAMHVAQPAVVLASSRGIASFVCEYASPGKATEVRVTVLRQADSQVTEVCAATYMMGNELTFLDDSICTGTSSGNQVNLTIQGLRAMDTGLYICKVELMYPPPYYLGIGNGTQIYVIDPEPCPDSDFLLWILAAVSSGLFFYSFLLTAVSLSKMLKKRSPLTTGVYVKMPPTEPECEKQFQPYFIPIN

[2] = biological target: T4, human PD-L1 (CD274), full-length, expressed on the surface of CHO cells (human, UniProt Q9NZQ7 19-290); experiment: flow cytometry on PD-L1 CHO cells; MFI against WT CD80 ECD-Fc (R&D)
T4 construct: also called huPD-L1; B7-H1
T4 sequence (Q9NZQ7 19-290): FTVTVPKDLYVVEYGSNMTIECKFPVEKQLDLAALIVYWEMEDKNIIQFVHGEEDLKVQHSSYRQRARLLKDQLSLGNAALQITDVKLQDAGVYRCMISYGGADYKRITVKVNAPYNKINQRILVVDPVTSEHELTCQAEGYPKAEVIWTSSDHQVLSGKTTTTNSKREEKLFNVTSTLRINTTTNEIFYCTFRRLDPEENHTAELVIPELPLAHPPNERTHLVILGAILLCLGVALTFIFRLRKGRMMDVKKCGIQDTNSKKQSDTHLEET

[3] = biological target: T4, human PD-L1 (CD274), full-length, …; experiment: flow cytometry, CHO cells stably expressing human PD-L1, 33.3 nM Fc fusion, PE anti-human Fc
[4] = biological target: T4, human PD-L1 (CD274), full-length, …; experiment: flow cytometry; MFI on PD-L1 CHO cells over MFI on Jurkat cells (CD28)
[5] = biological target: T5, human CD28, endogenously expressed on Jurkat/IL2 reporter cells (human, UniProt P10747 19-220); experiment: flow cytometry on Jurkat cells (CD28); MFI against WT CD80 ECD-Fc (R&D)
T5 construct: This is the endogenous CD28 of Jurkat cells

[6] = biological target: T3, human CTLA-4 (CTLA4), full-length, …; experiment: flow cytometry on CTLA-4 CHO cells; MFI against WT CD80 ECD-Fc (R&D)
[7] = biological target: T5, human CD28, endogenously expressed on …; experiment: flow cytometry, Jurkat/IL2 reporter cells (endogenous CD28), 33.3 nM Fc fusion, PE anti-human Fc

T2 sequence (Q9NZQ7 19-290): as above

B1: CD80 E35D/M47V/N48K/V68M/K89N IgV-Fc, GS(G4S)3 linker (Fc fusion, not shown: a dimerising Fc or GST)
chain: VIHVTKEVKEVATLSCGHNVSVEELAQTRIYWQKDKKMVLTMMSGDVKIWPEYKNRTIFDITNNLSIMILALRPSDEGTYECVVLKYENDAFKREHLAEVTLSVKADGSGGGGSGGGGSGGGGS
B1 was tested, and the “MFI at 33.3 nM” value (human CD28) was 2110 MFI and the “MFI at 33.3 nM” value (human PD-L1) was 24200 MFI.

B2: CD80 E35D/D46V/M47L/V68M/L85Q/E88D IgV-Fc, GS(G4S)3 linker (Fc fusion, not shown: a dimerising Fc or GST)
chain: VIHVTKEVKEVATLSCGHNVSVEELAQTRIYWQKDKKMVLTMMSGVLNIWPEYKNRTIFDITNNLSIMILALRPSDEGTYECVVQKYDKDAFKREHLAEVTLSVKADGSGGGGSGGGGSGGGGS
B2 was tested, and the “MFI at 33.3 nM” value (human CD28) was 267 MFI and the “MFI at 33.3 nM” value (human PD-L1) was 22600 MFI.

B3: variant CD80 IgV-Fc E35D/D46E/M47V/L97Q (Fc fusion, not shown: a dimerising Fc or GST)
chain: VIHVTKEVKEVATLSCGHNVSVEELAQTRIYWQKDKKMVLTMMSGEVNIWPEYKNRTIFDITNNLSIVILALRPSDEGTYECVVLKYEKDAFKREHQAEVTLSVKAD
With B3 the “MFI at 33.3 nM” value [1] was 305000 MFI, the “Fold change to WT” value [2] was 2.45 fold and the “MFI at 33.3 nM” value [3] was 19500 MFI. The “Ratio of PDL1:CD28” value [4] was 52 ratio, the “Fold change to WT” value [5] was 0.05 fold and the “Fold change to WT CD80” value [6] was 1.71 fold. For the same binder, the “MFI at 33.3 nM” value [7] was 371 MFI.

B4: variant CD80 IgV-Fc Q33L/E35D/M43I/L85Q/R94W (Fc fusion, not shown: a dimerising Fc or GST)
chain: VIHVTKEVKEVATLSCGHNVSVEELAQTRIYWLKDKKMVLTMISGDMNIWPEYKNRTIFDITNNLSIVILALRPSDEGTYECVVQKYEKDAFKWEHLAEVTLSVKAD
With B4 the “MFI at 33.3 nM” value [1] was 1080 MFI, the “Fold change to WT” value [2] was 3.65 fold and the “MFI at 33.3 nM” value [3] was 29000 MFI. The “Ratio of PDL1:CD28” value [4] was 107 ratio, the “Fold change to WT” value [5] was 0.04 fold and the “Fold change to WT CD80” value [6] was 0.01 fold. The “MFI at 33.3 nM” value [7] was 272 MFI.

B5: variant CD80 IgV-Fc H18Y/Y31H/E35D/M47V/A71G/L85Q (Fc fusion, not shown: a dimerising Fc or GST)
chain: VIHVTKEVKEVATLSCGYNVSVEELAQTRIHWQKDKKMVLTMMSGDVNIWPEYKNRTIFDITNNLSIVILGLRPSDEGTYECVVQKYEKDAFKREHLAEVTLSVKAD
For B5, the “MFI at 33.3 nM” value [1] was 3840 MFI, the “Fold change to WT” value [2] was 9.61 fold and the “MFI at 33.3 nM” value [3] was 76400 MFI. The “Ratio of PDL1:CD28” value [4] was 285 ratio, the “Fold change to WT” value [5] was 0.04 fold and the “Fold change to WT CD80” value [6] was 0.02 fold. The “MFI at 33.3 nM” value [7] was 268 MFI.

B6: variant CD80 IgV-Fc Q33L/E35D/N48K/L85Q/L97Q (Fc fusion, not shown: a dimerising Fc or GST)
chain: VIHVTKEVKEVATLSCGHNVSVEELAQTRIYWLKDKKMVLTMMSGDMKIWPEYKNRTIFDITNNLSIVILALRPSDEGTYECVVQKYEKDAFKREHQAEVTLSVKAD
For B6, the “MFI at 33.3 nM” value [1] was 1180 MFI, the “Fold change to WT” value [2] was 5.69 fold and the “MFI at 33.3 nM” value [3] was 45200 MFI. The “Ratio of PDL1:CD28” value [4] was 162 ratio, the “Fold change to WT” value [5] was 0.04 fold and the “Fold change to WT CD80” value [6] was 0.01 fold. For the same binder, the “MFI at 33.3 nM” value [7] was 279 MFI.

B7: variant CD80 IgV-Fc H18Y/E35D/V68M/L97Q (Fc fusion, not shown: a dimerising Fc or GST)
chain: VIHVTKEVKEVATLSCGYNVSVEELAQTRIYWQKDKKMVLTMMSGDMNIWPEYKNRTIFDITNNLSIMILALRPSDEGTYECVVLKYEKDAFKREHQAEVTLSVKAD
In the case of B7, the “MFI at 33.3 nM” value [1] is reported as 173000 MFI, the “Fold change to WT” value [2] is reported as 15.3 fold and the “MFI at 33.3 nM” value [3] is reported as 122000 MFI. For the same binder, the “Ratio of PDL1:CD28” value [4] was 407 ratio, the “Fold change to WT” value [5] was 0.04 fold and the “Fold change to WT CD80” value [6] was 0.97 fold. For the same binder, the “MFI at 33.3 nM” value [7] was 299 MFI.

B8: variant CD80 IgV-Fc Q33L/E35D/M47L/A71G/F92S (Fc fusion, not shown: a dimerising Fc or GST)
chain: VIHVTKEVKEVATLSCGHNVSVEELAQTRIYWLKDKKMVLTMMSGDLNIWPEYKNRTIFDITNNLSIVILGLRPSDEGTYECVVLKYEKDASKREHLAEVTLSVKAD
With B8 the “MFI at 33.3 nM” value [1] was 2110 MFI, the “Fold change to WT” value [2] was 3.53 fold and the “MFI at 33.3 nM” value [3] was 28000 MFI. The “Ratio of PDL1:CD28” value [4] was 77 ratio, the “Fold change to WT” value [5] was 0.05 fold and the “Fold change to WT CD80” value [6] was 0.01 fold. The “MFI at 33.3 nM” value [7] was 366 MFI.

B9: variant CD80 IgV-Fc E35D/M47V/T62A/A71G/V83A/Y87H/L97M (Fc fusion, not shown: a dimerising Fc or GST)
chain: VIHVTKEVKEVATLSCGHNVSVEELAQTRIYWQKDKKMVLTMMSGDVNIWPEYKNRTIFDIANNLSIVILGLRPSDEGTYECAVLKHEKDAFKREHMAEVTLSVKAD
With B9 the “MFI at 33.3 nM” value [1] was 18100 MFI, the “Fold change to WT” value [2] was 9.76 fold and the “MFI at 33.3 nM” value [3] was 77500 MFI. For the same binder, the “Ratio of PDL1:CD28” value [4] was 255 ratio, the “Fold change to WT” value [5] was 0.04 fold and the “Fold change to WT CD80” value [6] was 0.1 fold. For the same binder, the “MFI at 33.3 nM” value [7] was 305 MFI.

B10: variant CD80 IgV-Fc Q33L/E35D/M43V/M47I/A71G (Fc fusion, not shown: a dimerising Fc or GST)
chain: VIHVTKEVKEVATLSCGHNVSVEELAQTRIYWLKDKKMVLTMVSGDINIWPEYKNRTIFDITNNLSIVILGLRPSDEGTYECVVLKYEKDAFKREHLAEVTLSVKAD
With B10 the “MFI at 33.3 nM” value [1] was 14000 MFI, the “Fold change to WT” value [2] was 9.82 fold and the “MFI at 33.3 nM” value [3] was 78000 MFI. For the same binder, the “Ratio of PDL1:CD28” value [4] was 275 ratio, the “Fold change to WT” value [5] was 0.04 fold and the “Fold change to WT CD80” value [6] was 0.08 fold. For the same binder, the “MFI at 33.3 nM” value [7] was 284 MFI.

B11: variant CD80 IgV-Fc E35D/M47V/A71G/L85M/L97Q (Fc fusion, not shown: a dimerising Fc or GST)
chain: VIHVTKEVKEVATLSCGHNVSVEELAQTRIYWQKDKKMVLTMMSGDVNIWPEYKNRTIFDITNNLSIVILGLRPSDEGTYECVVMKYEKDAFKREHQAEVTLSVKAD
For B11, the “MFI at 33.3 nM” value [1] was 239000 MFI, the “Fold change to WT” value [2] was 7.77 fold and the “MFI at 33.3 nM” value [3] was 61700 MFI. The “Ratio of PDL1:CD28” value [4] was 182 ratio, the “Fold change to WT” value [5] was 0.04 fold and the “Fold change to WT CD80” value [6] was 1.34 fold. For the same binder, the “MFI at 33.3 nM” value [7] was 339 MFI.

B12: variant CD80 IgV-Fc Q33L/E35D/M47L/V68M/L85Q/E88D (Fc fusion, not shown: a dimerising Fc or GST)
chain: VIHVTKEVKEVATLSCGHNVSVEELAQTRIYWLKDKKMVLTMMSGDLNIWPEYKNRTIFDITNNLSIMILALRPSDEGTYECVVQKYDKDAFKREHLAEVTLSVKAD
B12 was tested, and the “MFI at 33.3 nM” value [1] was 3530 MFI, the “Fold change to WT” value [2] was 15.8 fold and the “MFI at 33.3 nM” value [3] was 126000 MFI. For the same binder, the “Ratio of PDL1:CD28” value [4] was 476 ratio, the “Fold change to WT” value [5] was 0.03 fold and the “Fold change to WT CD80” value [6] was 0.02 fold. The “MFI at 33.3 nM” value [7] was 264 MFI.

B13: variant CD80 IgV-Fc V22A/R29H/E35D/D46E/M47I (Fc fusion, not shown: a dimerising Fc or GST)
chain: VIHVTKEVKEVATLSCGHNVSAEELAQTHIYWQKDKKMVLTMMSGEINIWPEYKNRTIFDITNNLSIVILALRPSDEGTYECVVLKYEKDAFKREHLAEVTLSVKAD
With B13 the “MFI at 33.3 nM” value [1] was 77400 MFI, the “Fold change to WT” value [2] was 3.2 fold and the “MFI at 33.3 nM” value [3] was 25400 MFI. The “Ratio of PDL1:CD28” value [4] was 79 ratio, the “Fold change to WT” value [5] was 0.04 fold and the “Fold change to WT CD80” value [6] was 0.43 fold. For the same binder, the “MFI at 33.3 nM” value [7] was 323 MFI.

B14: variant CD80 IgV-Fc V22A/E35D/V68E/A71D (Fc fusion, not shown: a dimerising Fc or GST)
chain: VIHVTKEVKEVATLSCGHNVSAEELAQTRIYWQKDKKMVLTMMSGDMNIWPEYKNRTIFDITNNLSIEILDLRPSDEGTYECVVLKYEKDAFKREHLAEVTLSVKAD
notes: The molecule is an Fc fusion, which the general text describes as a dimer
For B14, the “MFI at 33.3 nM” value [1] was 437000 MFI, the “Fold change to WT” value [2] was 0.17 fold and the “MFI at 33.3 nM” value [3] was 1350 MFI. For the same binder, the “Ratio of PDL1:CD28” value [4] was 0 ratio, the “Fold change to WT” value [5] was 1.83 fold and the “Fold change to WT CD80” value [6] was 2.45 fold. For the same binder, the “MFI at 33.3 nM” value [7] was 14000 MFI.

B15: CD80 ECD-Fc (inert) with GSG4S linker, Example 16 (Fc fusion)
chain: VIHVTKEVKEVATLSCGHNVSVEELAQTRIYWQKEKKMVLTMMSGDMNIWPEYKNRTIFDITNNLSIVILALRPSDEGTYECVVLKYEKDAFKREHLAEVTLSVKADFPTPSISDFEIPTSNIRRIICSTSGGFPEPHLSWLENGEELNAINTTVSQDPETELYAVSSKLDFNMTTNHSFMCLIKYGHLRVNQTFNWNTTKQEHFPDNGSGGGGSEPKSSDKTHTCPPCPAPEAEGAPSVFLFPPKPKDTLMISRTPEVTCVVVDVSHEDPEVKFNWYVDGVEVHNAKTKPREEQYNSTYRVVSVLTVLHQDWLNGKEYKCKVSNKALPAPIEKTISKAKGQPREPQVYTLPPSREEMTKNQVSLTCLVKGFYPSDIAVEWESNGQPENNYKTTPPVLDSDGSFFLYSKLTVDKSRWQQGNVFSCSVMHEALHNHYTQKSLSLSPG
For B15, the “MFI at 33.3 nM” value (human CD28) was 37 MFI and the “MFI at 33.3 nM” value (human PD-L1) was 35 MFI.
